Source: publication PMC7672607

How the values were obtained:
Test in all cases: flow cytometry on cells; K562/HLA-F*01:0x cells stripped of bound peptides with citrate phosphate buffer, with or without 200 µM HBB peptide (4 h, 37 °C, serum-free medium); Fc-block 20 min 4 °C; KIR3DS1-Fc 25 µg/mL, 40 min, 4 °C; detected with goat anti-human IgG Fc PE; n = 3
[1] = target: HLA-F*01:01 on K562 cells loaded with the HBB peptide … (human | human (endogenous in K562))
[2] = target: HLA-F*01:03 on K562 cells loaded with the HBB peptide … (human | human (endogenous in K562))
[3] = target: HLA-F*01:04 on K562 cells loaded with the HBB peptide … (human | human (endogenous in K562))

- percent decrease of KIR3DS1 binding against the same cells without HBB peptide [1]: 36.2%
- percent decrease of KIR3DS1 binding against the same cells without HBB peptide [2]: 27.9%
- percent decrease of KIR3DS1 binding against the same cells without HBB peptide [3]: 16.5%
Substance: recombinant KIR3DS1-Fc chimeric protein (from UniProt Q14943 22-340) (Fc fusion)
